Data reported in paper PMC11650997 (Journal of Virology, 2024).

B1: pT1616 (human monoclonal antibody, IgG1) (antibody, V domains shown)
VH: QVQLVQSGAEVKKPGSSVKVSCKASGGTFSSYTISWVRQAPGQGLECMGRIIPILGIANYAQKFQGRVTITADKSTSIAYMEVSSLRSEDTAVYYCATEVGYSGYGSAEYFNHWGQGTPVTVSS
VL: QSVLTQPPSVSGAPGQRVTISCTGSNSNIGAGYDVHWYQQLPGTAPKLLIYANNNRPSGVPDRFSGSRSGTSASLVITGLQADDEADYYCQSYDSSLTGSLFGGGTKLTVL
notes: also called bnAb pT1616; nAb pT1616; source: HEK293ExPi, transfected, purified from the supernatant (Protein G, SEC)
B2: pT1616 IgG1 (antibody, V domains shown)
VH: B1 VH
VL: B1 VL
notes: also called bnAb pT1616; nAb pT1616; source: HEK293ExPi, transfected, purified from supernatant (Protein G, SEC)

Key:
[1] = target: T1, SARS-CoV-2 S protein ectodomain trimer, prefusion conformation, insect cell-expressed (SARS-CoV-2 Wuhan-Hu-1 (MN908947), UniProt P0DTC2, stabilised); experiment: SPR; […] (100 nM, 30 s) […]; 1:1 Langmuir fit; conditions: both partners purified
T1 construct: also called S trimer; trimeric S protein

[2] = target: T2, SARS-CoV-2 S protein ectodomain trimer in prefusion conformation (insect cell-expressed) (SARS-CoV-2 Wuhan-Hu-1 (MN908947), UniProt P0DTC2, stabilised); experiment: SPR; […] (100 nM) […]; 1:1 Langmuir fit; conditions: both partners purified
T2 construct: also called trimeric SARS-CoV-2 S protein; S trimer

| Binder | Kd [1] [nM] | koff [1] [s⁻¹] | kon [1] [M⁻¹ s⁻¹] | fold lower KD for the S trimer than for the monomeric RBD [2] [fold] |
| --- | --- | --- | --- | --- |
| B1 | 0.083 | 6.9e-05 | 840000 |  |
| B2 |  |  |  | > 3 |
